Data as given in PMC7138820, “Acetylation of histone H3K27 signals the transcriptional elongation for estrogen receptor alpha” (Communications Biology, 2020).

Target: the molecule itself
Test: crystal structure; AFF4 900–1163, sitting-drop vapor diffusion at 16 °C, 2.2 M NaH2PO4, 0.4 M K2HPO4, 0.1 M MES pH 6.6; SAD phasing; 2.2 Å

B1: AFF4 fragment encompassing residues 900–1163 (crystallised) (domain or fragment, human, UniProt Q9UHB7 900-1163, looked up)
chain: KPRRTKLVFDDRNYSADHYLQEAKKLKHNADALSDRFEKAVYYLDAVVSFIECGNALEKNAQESKSPFPMYSETVDLIKYTMKLKNYLAPDATAADKRLTVLCLRCESLLYLRLFKLKKENALKYSKTLTEHLKNSYNNSQAPSPGLGSKAVGMPSPVSPKLSPGNSGNYSSGASSASASGSSVTIPQKIHQMAASYVQVTSNFLYATEIWDQAEQLSKEQKEFFAELDKVMGPLIFNASIMTDLVRYTRQGLHWLRQDAKLIS
notes: A selenomethionyl derivative was made for SAD phasing; also called AFF4 C-terminal dimerization domain; AFF4 homodimerization domain; source: E. coli BL21(DE3) codon-plus RIL, purified (Ni-chelating resin, HiTrap SP, Superdex 75); not shown: His, N-terminal, cleaved; SUMO, N-terminal, cleaved
**Q.** Does B1 bind?
**A.** Result: binds
